From a protein production outcome set (Wang et al. 2014)

experiment: label from the status in PepcDB records

Sequence | protein production
MAKTGDPARAVTPPAIGTLDFALDRSSPVPLYYQLARQLEAAIEHGVLAPGNLLGNEVDLSVRLGLSRPTVRQAIQSLVDKGLLVRRRGVGTQVVHSQVRRPLELSSLYDDLEAAGQDPGTRVVRNEDVPATAEVAAALGVTEGTGVTVLERLRLTHGQPVAMLCNHLPAGLLELDDARLESTGLYRMMRARGITLHSARQTVGARIASREEAERLGEREGAALLTMRRIAYDDTGRPVEYGTHVYRASRYAFDFQLLVRN | not failed
MAKTPAAAPTATDPVAIAGPAPETIAVHGHRIACDGVGGALGHPRVWLEMGAAGFVDCPYCDRRFVAATDAGHDEHLAPGVYVDAAGHLEHHHHHH | failed
MAKVTVILTSYNKPNTVGAAIESVLSQSFQDWELWIMDDASNEETQQVIDSYMLYPNVYYYNSQVKDEERHKSTRYATLINEAISRSTGDYLCYLTDDNYYLPERLQKMVQYLERYPSVDVVYSKQLVRTVDNQLITQAERIRPTKGTIRYAENIVDHCSVMHRRSLAEKVYETYGSYWNDDPICWHNGDAFFWNRLSAFALFYPINEVLDVCLKSPTSFQALNAFLPEYLPSGTLVKGLGADVYLIEDNHRRAITPTMFQQLHYREENVVHIPDPVLFKYKEGPAIDEHIWEQGKLFPNHRLIKASQEPHIYYVENHRKRHILTHKEFRLYKFRASEVVEVSRSFLDSIPTGPPISAHVNNQHPLPEGLLVRCGFKFYLSGNNRLYPIKSRVMKKLNLQMKNAVFLDSRAIGRYEQGETIEWKTNKCQPRFNTSSLEHHHHHH | failed
MAKWRVAAILSGALLAADARAEALRMLLTQIPGIIEQAPDGASMRGVGIDLMKEVGRRAGVELRFEAYPQARARLLVERQRDACLPVAHLPEQAANFKWSAPLLQMRLVLLARGDDGRQLRSLEQAGGLRVGAMRGTMAAARLKERGVAVEESADYLSGLEKLRLGRLDLWAMLDVGVASLARRLEMPPPRVAWVMDTLDVSFACNRQVDDALIARLDGAIAAMRADGSMARFDLR | failed
MALASSEALVNLVEYARWNQCGVSGGPGTKEFSAEGTEAAKGGRRKAAGGRAGRGGAGRERGGTRDPAMGPGARLALLALLALGGDPAAATGREDTFSALTSVARALAPERRLLGTLRRYLRGEEARLRDLTRFYDKVLSLHEDLKIPVVNPLLAFTLIKRLQSDWRNVVHSLEATENIRALKDGYEKVEQDLPAFEDLEGAARALMRLQDVYMLNVKGLARGVFQRVTGSSITDLYSPRQLFSLTADDCFQVGKVAYDTGDYYHAIPWLEEAVSLFRRAHGEWKTEDEASLEDALDYLAFACFQVGNVSCALSLSREFLVYSPDNKRMARNVLKYERLLAENGHQMAAETAIQRPNVPHLQTRDTYEGLCQTLGSQPTHYQIPSLYCSYETNSSPYLLLQPARKEVVHLRPLIALYHDFVSDEEAQKIRELAEPWLQRSVVASGEKQLQVEYRISKSAWLKDTVDPMLVTLDHRIAALTGLDIQPPYAEYLQVVNYGIGGHYEPHFDHATSPSSPLYRMKSGNRVATFMIYLSSVEAGGATAFIYGNFSVPVVKLSSVEAGGATAFIYGNFSVPVVKLHVFTVPMDGGPWCTCGHWVANKWIHEYGQEFRRPCSTNPED | failed
MALAVTSSSTAISGSSFSRSGASSESKALQICSIRLSDRTHLSQRRYSMKPLNAESHSRSESWVTRASTLIAPEVEEKGGEVEDFEQLAKKLEDASPLEIMDKALERFGDQIAIAFSGAEDVALIEYARLTGKPFRVFSLDTGRLNPETYRLFDAVEKQYGIRIEYMFPDAVEVQALVRNKGLFSFYEDGHQECCRVRKVRPLRRALKGLKAWITGQRKDQSPGTRSEIPIVQVDPVFEGLDGGVGSLVKWNPLANVEGADVWNFLRTMDVPVNALHAQGYVSIGCEPCTRPVLPGQHEREGRWWWEDAKAKECGLHKGNIKEEDGAADSKPAAVQEIFESNNVVALSKGGVENLLKLENRKEAWLVVLYAPWCPFCQAMEASYIELAEKLAGKGVKVAKFRADGEQKEFAKQELQLGSFPTILLFPKRAPRAIKYPSEHRDVDSLMSFVNLLR | failed
MALILRPPHGYSVRNRYWPGSGASNLPYLFEDFALDGDRRELRRGNSLIAVEPQVFDLLQYLIRNRERVVSKDDLVDAVWQGRIVSDATLASRVNAARSALQDNGEQQRLVRTFPRRGFRFVGTVHEEAGAEATAPVEPAKPGLGIPARPSIAVLPFVNLSGDPDQDYFADGMVEDIITGLSRIRWLFVIARNSSFTYKGRAVDMKQVGQELGVRYVLEGSVRKVGSRVRITGQLIDTEDGGHLWAERYDRELTDVFALQDEITISVVAAIEPNLRRAEIERVKRQRPDSLDAYDLFLRALPDVYTFMPQGAARGLPLLDQALAIEPSYALVHGFAAWAHQTLFIRGGMQAEHSGKASRHAHAAIEHGSGDAMALALAGFTIGLVEHDRKLADEAFSQALSLSASCAFVYAFGCVPVAYGGDATRAIDWGEQALRLNPLDAMNCVPQGMIGFGNFLAGRHEQAIAAGRRAVEMNPGFSILHGWLAAPLARLGRIEEAKAAGSRLMALDPHFTIGRWSAAVGLAPAIIDDVTEAMRLAGLPA | failed
MALKLGLTEAVSLGITHISIYCDHFQIFELVMWRSVPDKDSIAMIMYDVQRIRQQLTSSTPLLVTGNQTNKLAYELALETLVSEISISIEEKALTCDKN | failed
MALLCYNRGCGQRFDPETNSDDACTYHPGVPVFHDALKGWSCCKRRTTDFSDFLSIVGCTKGRHNSEKPPEPVKPEVKTTEKKELCELKPKFQEHIIQAPKPVEAIKRPSPDEPMTNLELKISASLKQALDKLKLSSGNEENKKEEDNDEIKIGTSCKNGGCSKTYQGLESLEEVCVYHSGVPIFHEGMKYWSCCRRKTSDFNTFLAQEGCTKGKHMWTKKDAGKKVVPCRHDLHQTGGEVTISVYAKNSLPELSRVEANSTLLNVIIVFEGEKEFDQNVKLWGVIDVKRSYVTMTATKIEITMRKAEPMQWASLELPAAKKQEKQKDDTTD | not failed
MALLIITTILWAFSFSLIGEYLAGSVDSYFSVLMRVGLAALVFLPFLRTRGQSPRTIVLYMLVGAMQLGIMYLLAFRAYLYLTVSEFLLFTVFTPLYITLIYDLLSGRKLRWGYLLSAALAVLGAAIIRYDKVSDHFWTGLLLVQLSNLCFAIGMVGYKRLMEVRPMPQHNAFAWFYVGAFIVAVAAWFMLGNAQKLPTTTLQWSVLVWLGVVASGLGYFMWNYGATQVDAGTLGIMNNVHVPAGLLVNLAIWQEQPHWPSFISGALVILASLWVHRRWVAPHSGQTADDRRRGSAQSE | failed
MALMQELYSTPASRLDSFVAQWLQPHREWKEEVLDAVRTVEEFLRQEHFQGKRGLDQDVRVLKVVKVGSFGNGTVLRSTREVELVAFLSCFHSFQEAAKHHKDVLRLIWKTMWQSQDLLDLGLEDLRMEQRVPDALVFTIQTRGTAEPITVTIVPAYRALGPSLPNSQPPPEVYVSLIKACGGPGNFCPSFSELQRNFVKHRPTKLKSLLRLVKHWYQQYVKARSPRANLPPLYALELLTIYAWEMGTEEDENFMLDEGFTTVMDLLLEYEVICIYWTKYYTLHNAIIEDCVRKQLKKERPIILDPADPTLNVAEGYRWDIVAQRASQCLKQDCCYDNRENPISSWNVKRARDIHLTVEQRGYPDFNLIVNPYEPIRKVKEKIRRTRGYSGLQRLSFQVPGSERQLLSSRCSLAKYGIFSHTHIYLLETIPSEIQVFVKNPDGGSYAYAINPNSFILGLKQQIEDQQGLPKKQQQLEFQGQVLQDWLGLGIYGIQDSDTLILSKKKGEALFPAS | failed
MALPIIVKWGGQEYSVTTLSEDDTVLDLKQFLKTLTGVLPERQKLLGLKVKGKPAENDVKLGALKLKPNTKIMMMGTREESLEDVLGPPPDN | failed
MALQLATLCFVSFSALFFVVDPFSAVPFFLALTRNDDPRRRREIALRASVTAFAVLAAFALTGEWIFRLLGIGLPAFKVAGGVVLLLLALDMVRTQPSRTRITQGEVDASADKEDVAIVPLAMPLLAGPGSIATAIVLMVRARGEDWWHPLPVLLAIALTCLASYLILAGAARTEKVLGRTGLAILERVAGLLLVAIAVQFMMDGLAEGLPRAFPLR | failed
MALREQWAETAMGVVVLALTAGFLTYSLTVGGVHMKRGDYEISAKFGEAGSLAPGAAVTVAGVKVGTVSQITLEPKTYLAVAKLSIDPTVKLPADSTAKITSDGLLGGAHVAIAPGASLDDLKPGGEIENTQGAVDLFGLIGSVIRPQGGAATTSTPAEANPATQPAESYLEHHHHHH | not failed
MALRQKLGWSEGDLMRSDAKPCSRLMKQTAAIFTVGGALGFWVLCRLHYGPRITVPRSLRWAGCGALSVSTSTAMLVRLFSPECEPQNIAAYDNIKTPQASLP | failed
MALSKRELDELKPWIEKTVKRVLGFSEPTVVTAALNCVGKGMDKKKAADHLKPFLDDSTLRFVDKLFEAVEEGRSSRHS | not failed
MALVDDGSQPLVSVIIASYNHEKYIEASIASVAAQTYRNVELLVVDDGSSDGSVELLRGLQAKYGFDLRVQQNQGLSRTLNEAITRARGNLIVPFGSDDIMLPQRLEKQVAHMWDKPEVGICAGNIEIIDSNGRVMPGKEQRKRDLPFRRLDFDDLFLDRKPGPMAPTLMFRREALEKVGGFDPDIRLEDVYIELAVTKAGYVIDILGEVLAQYRKHPTNTYKNARFMVDNVFKTYSQFSDHPDYEQVIMRFRNSMFLKCSNRDKVLARELLSGLPLKYWNEKTFRGIARLFFS | failed
MALVPVYCLCRQPYNVNHFMIECGLCQDWFHGSCVGIEEENAVDIDIYHCPDCEAVFGPSIMKNWH | not failed
MALVRKDVVKLAAPIFVEQLFVTLMGMINTMMAGHIGKEAVSAIGMIDSINNIFIAFFSALAVGGTVVVAQYIGQNNIKKANESTKQALYSTIIIAFVITIIMAILKGPLLGFLFGSAEKEVILDANSYFGITLLTYPLITIDLVSNGILRGAGDTKTPMKISILMNVLNVAFTALFIWGIKINGTVVVKSLGITGAALGIATARTIGGIIILIVMVRGSRIVQLKKLTEFKFDMTLLKPIFGIGVPASVESLLFNGGKLIMQIFIVGMGTVAMASNTIVNSISNFLNIPGNSLVIAATALVGQHMGRDDDKGAEKCLSYITKLSTVLLAIVGILSILFSRHLPSPVYWK | failed
MALVSADSRIAELLTELHQLIKQTQEERSRSEHNLVNIQKTHERMQTENKISPYYRTKLRGLYTTAKADAEAECNILRKALDKIAEIKSLLEERRIAAKIAGLYNDSEPPRKTMRRGVLMTLLQQSAMTLPLWIGKPGDKPPPLCGAIPASGDYVARPGDKVAARVKAVDGDEQWILAEVVSYSHATNKYEVDDIDEEGKERHTLSRRRVIPLPQWKANPETDPEALFQKEQLVLALYPQTTCFYRALIHAPPQRPQDDYSVLFEDTSYADGYSPPLNVAQRYVVACKEPKKK | failed
MAMRELSQLNRDSDGDEEVWVKHYSSNHQILLVGEGDFSFSHSLATLFGSASNICASSLDSYDVVVRKYKKARSNLKTLKRLGALLLHGVDATTLHFHPDLRYRRFDRVIFNFPHAGFHGRESDSSLIRKHRELVFGFFNGASRLLRANGEVHVSHKNKAPFSEWNLEELASRCFLVLIQRVAFEKNNYPGYENKRGDGRRCDQPFLLGECSTFKFRFSRVAKELYAEKVRSREVKERESMYPEAILNKQPVSFDHRYRLQTEFEAIAGTITLGKSKILWLSQEKGHLHWIFVTTKNVDVYSSKIPESPERHRLLCQDFPVQASQEPLSEYSNRWSGVSREIYNWEVRRMSTSTSFPHPYTGESQERSLSRQSNLITHPPQHW | failed
MAMWVFGYGSLIWKTGFPFDESLPGFIKGYRRVFHQGSTDHRGTPDFPGRTVTLEAAHEEHLEVREKQYDQKEYLDFFTDSNASEPAVAGVMVYIASPDKKSNNNYLGPAPLEDIAKQIVKAKGPSGPNRDYLFNLEEALAQLGFKDKHVTDLANQVRHILSESEELDIDATAATANNV | failed
